{"source": "patent US20250049892A1", "about": "“SEMAGLUTIDE SOLUBLE MICRONEEDLE COMPOSITION AND PREPARATION METHOD THEREFOR” (GUANGZHOU NOVAKEN PHARM CO., LTD., priority 2022, published 2025)", "origin": "cited, not measured here", "conditions": "oral administration of semaglutide (with SNAC)", "data": [{"substance": "Semaglutide", "values": [{"measurement": "bioavailability", "result": "0.9-1.2%"}]}]}
